According to paper PMC9080447 (Biochemistry, 2021):

Columns and labels:
Test in all cases: native MS
[1] = molecular target: His6-tagged Salmonella FrlB E224Q/H240N (Salmonella)
[2] = molecular target: wild-type Salmonella FrlB deglycase (Salmonella)
native MS = molecular target: the molecule itself

## His6-tagged Salmonella FrlB E224Q/H240N (enzyme)
[1]
  stoichiometry N: 2

## wild-type Salmonella FrlB deglycase (enzyme)
[2]
  stoichiometry N: 2

B1: His6-tagged Salmonella YidA (enzyme, UniProt A0A0F6B8Z9 1-281, looked up)
chain: MAIKLIAIDMDGTLLLPDHTISPAVKNAIAAAREKGVNVVLTTGRPYAGVHSYLKELHMEQPGDYCITYNGALVQKAGDGSTVAQTALSYDDYRYLEKLSREVGSHFHALDRNTLYTANRDISYYTVHESYVATIPLVFCEAEKMDPNTQFLKVMMIDEPAVLDRAIARIPAEVKEKYTVLKSAPYFLEILDKRVNKGTGVKSLVEALGIKPEEVMAIGDQENDIAMIEYAGMGVAMDNAIPSVKEVANFVTKSNLEDGVAWAIEKFVLNPDHSSGHFPAR
Native MS
  stoichiometry N: 2
